This series can be described thus: protein stability index of a GFP-peptide fusion (GPS, HEK-293T) (PSI 1-6); higher = more stable. The note with it: c terminus: a fixed tail appended.

± gives the standard deviation.

In the supplement of paper PMC10567573 one finds protein stability index data, which are given here for 36 sequences.
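Further: 24-mer peptide tiles fused after GFP, lentivirally expressed, FACS-sorted into six equal bins by GFP/DsRed ratio, decoded by Illumina sequencing, PSI is the read-weighted mean bin number.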

Consider NNCAFLESSAKSKINVNEIFYDLV [RAP1B], for which the protein stability index by setting is: (treatment: DMSO) 2.44 ± 0.45; (treatment: MLN4924 1 uM, 8 h) 2.07 ± 0.34.

NIPGDVLRAVEQAMGHSQDRLTTF [LRRC45] showed a protein stability index (treatment: DMSO) of 3.09 ± 0.14 and a protein stability index (treatment: MLN4924 1 uM, 8 h) of 3.19 ± 0.078.

IKVKPKRVGIFLDYEAGTLSFYNV [TRIM39]: the protein stability index by setting is: (treatment: DMSO) 2.54 ± 0.54; (treatment: MLN4924 1 uM, 8 h) 2.61 ± 0.48.

On to TRVSQLGLQVEGLRRRLEELQQEL [LRRC45], for which the protein stability index came out at 4.36 ± 0.24 (treatment: DMSO) and 4.55 ± 0.46 (treatment: MLN4924 1 uM, 8 h).

With TQHVNNWMKHNVADSQITTIGNLV [PTPRD], the protein stability index turned out to be 2.9 ± 0.44 (treatment: DMSO) and 3.12 ± 0.42 (treatment: MLN4924 1 uM, 8 h).

On to HSVNRDLNELERLSNLVGKPSENH [MED27], for which the protein stability index was determined as 4.75 ± 0.18 (treatment: DMSO) and 4.71 ± 0.11 (treatment: MLN4924 1 uM, 8 h).

PIGELYGLSESSGPHTISNQNNYR [ACSBG2]: the protein stability index (treatment: DMSO) is 3.91 ± 0.31 and the protein stability index (treatment: MLN4924 1 uM, 8 h) was found to be 4.07 ± 0.57.

Take RRETVLFTDYGLAALAVNTSILSR [RNF208]: the protein stability index was 2.09 ± 0.43 (treatment: DMSO) and 2.12 ± 0.18 (treatment: MLN4924 1 uM, 8 h).

On to LNLAMVYRYCCKLNKKLKSYSLSR [CDC14A], for which the protein stability index (treatment: DMSO) turned out to be 3.32 ± 0.69 and the protein stability index (treatment: MLN4924 1 uM, 8 h) worked out at 3.04 ± 0.49.

Turning to DSACDESSCIPKAFGNPKFALQGL [IRX6], the protein stability index stood at 3.62 ± 0.24 (treatment: DMSO) and 3.6 ± 0.23 (treatment: MLN4924 1 uM, 8 h).

With RRGIGGIFFDDLDSPSKEEVFRFV [CPOX], the protein stability index was 2.28 ± 0.2 (treatment: DMSO) and 2.64 ± 0.27 (treatment: MLN4924 1 uM, 8 h).

In the case of FYLPREELWIYNMETGRWKKINTE [KLHDC2], the protein stability index was 2.63 ± 0.22 (treatment: DMSO) and 2.32 ± 0.49 (treatment: MLN4924 1 uM, 8 h).

As for WRTWMTITQSWQVSVRVQPRGRAH [C22orf15], the protein stability index (treatment: DMSO) was 2.38 ± 0.64 and the protein stability index (treatment: MLN4924 1 uM, 8 h) stood at 3.05 ± 0.39.

FRQMATALAHCHQHGLVLRDLKLC [TRIB3]: the protein stability index worked out at 2.21 ± 0.38 (treatment: DMSO) and 2.03 ± 0.3 (treatment: MLN4924 1 uM, 8 h).

Consider GATWRTSGLLEELNAEAGHLDPGF [C18orf25], for which the protein stability index reads like this: (treatment: DMSO) 3.98 ± 0.43; (treatment: MLN4924 1 uM, 8 h) 3.75 ± 0.52.

Turning to SQGNFEGNFESLDLAEFAKKQPWW [FUNDC2], the protein stability index worked out at 3.63 ± 0.27 (treatment: DMSO) and 3.63 ± 0.46 (treatment: MLN4924 1 uM, 8 h).

On to ESHKAKNESWIKSHFSRLSEEKLA [C10orf62], for which the protein stability index is, setting by setting: (treatment: DMSO) 3.81 ± 0.17; (treatment: MLN4924 1 uM, 8 h) 3.86 ± 0.35.

On to RKEGIVKLKPHEEPLRSEILSGKF [PTPN9], for which the protein stability index was found to be 4.16 ± 0.13 (treatment: DMSO) and 4.08 ± 0.14 (treatment: MLN4924 1 uM, 8 h).

As to RPRGKERHKSGVHQPPQAGAGDVV [LYSMD4], the protein stability index is, setting by setting: (treatment: DMSO) 5.07 ± 0.27; (treatment: MLN4924 1 uM, 8 h) 5.07 ± 0.057.

For TYGWTANMERIMKAQALRDNSTMG [HSP90AB1], the protein stability index reads like this: (treatment: DMSO) 2.87 ± 0.24; (treatment: MLN4924 1 uM, 8 h) 3.31 ± 0.3.

For the sequence EEEPSHVTGREGFPTDAPYPTTLG [ZNF8], the protein stability index is 5.17 ± 0.14 (treatment: DMSO) and 5.17 ± 0.14 (treatment: MLN4924 1 uM, 8 h).

DEEKQEYLNEYEAEKIEYNESMKA [SMARCE1]: the protein stability index reads like this: (treatment: DMSO) 5.5 ± 0.17; (treatment: MLN4924 1 uM, 8 h) 5.05 ± 0.36.

CMCTVGERLYVIGGNHFRGTSDYD [KLHL13] came in with a protein stability index (treatment: DMSO) of 1.95 ± 0.17 and a protein stability index (treatment: MLN4924 1 uM, 8 h) of 2.38 ± 0.23.

Consider KACSLLDVAVHMPCLGHTFNAGIQ [ZBED1], for which the protein stability index runs as follows: (treatment: DMSO) 2.19 ± 0.5; (treatment: MLN4924 1 uM, 8 h) 2.11 ± 0.36.

Turning to NVISELNIEDYFSHHLAVYNSPQF [FBXO39], the protein stability index is 2.31 ± 0.29 (treatment: DMSO) and 2.32 ± 0.34 (treatment: MLN4924 1 uM, 8 h).

As to GELSPEQPSFEPTKNKELTDEFRE [FADS1], the protein stability index reads like this: (treatment: DMSO) 5.52 ± 0.33; (treatment: MLN4924 1 uM, 8 h) 5.38 ± 0.18.

For the sequence LKRSANQMGVSAKRRPKAQPTTLV [MED27], the protein stability index was found to be 3.48 ± 0.17 (treatment: DMSO) and 3.72 ± 0.27 (treatment: MLN4924 1 uM, 8 h).

Turning to PVLAVVFIICIVIAILLYKSKPDR [PTPRD], the protein stability index reads like this: (treatment: DMSO) 2.94 ± 1.7; (treatment: MLN4924 1 uM, 8 h) 2.87 ± 0.63.

With DKAMKKDGLVGMAIVGGMALGVAG [FIS1], the protein stability index is, setting by setting: (treatment: DMSO) 2.89 ± 0.16; (treatment: MLN4924 1 uM, 8 h) 2.67 ± 0.12.

Take LKYFSDFRPYFTIHDSEFKEYTTR [DENND6A]: the protein stability index is, setting by setting: (treatment: DMSO) 2.19 ± 0.32; (treatment: MLN4924 1 uM, 8 h) 2.3 ± 0.2.

Consider EQVFLYENARSGAEAEPEDQDEGE [ZBED1], for which the protein stability index turned out to be 5.7 ± 0.25 (treatment: DMSO) and 5.52 ± 0.4 (treatment: MLN4924 1 uM, 8 h).

As for FGAWRCLLDATVAGGQTRLQASDR [FCHSD1], the protein stability index reads like this: (treatment: DMSO) 2.36 ± 0.27; (treatment: MLN4924 1 uM, 8 h) 2.48 ± 0.34.

In the case of SKAPVLTYGQPKQAPPADFIPAHV [EFHC1], the protein stability index reads like this: (treatment: DMSO) 3.93 ± 0.18; (treatment: MLN4924 1 uM, 8 h) 4.1 ± 0.25.

In turn, MNEHPVCSRTWTNRLCHQEMGSKK [SPAG8] gave a protein stability index (treatment: DMSO) of 3.94 ± 0.28 and a protein stability index (treatment: MLN4924 1 uM, 8 h) of 4.09 ± 0.12.

Take EDQEGSPPETSLPYKWVVEAANLL [MYBL2]: the protein stability index (treatment: DMSO) came out at 3.96 ± 0.18 and the protein stability index (treatment: MLN4924 1 uM, 8 h) is 3.915 ± 0.031.

In turn, CHKYDRNIQVTGSAALFYLTNSEY [ZER1] returned a protein stability index (treatment: DMSO) of 2.28 ± 0.34 and a protein stability index (treatment: MLN4924 1 uM, 8 h) of 1.97 ± 0.23.
